Measured values from article doi:10.1101/2025.07.11.664294 (2025).
Bridges are numbered along the chain shown (N, C = ends).

Biological target: Neuropilin-1 (NRP-1) 22-644 (Homo sapiens, UniProt O14786)
Assay: SPR

Sequence of Neuropilin-1 (NRP-1) 22-644 (O14786 22-644): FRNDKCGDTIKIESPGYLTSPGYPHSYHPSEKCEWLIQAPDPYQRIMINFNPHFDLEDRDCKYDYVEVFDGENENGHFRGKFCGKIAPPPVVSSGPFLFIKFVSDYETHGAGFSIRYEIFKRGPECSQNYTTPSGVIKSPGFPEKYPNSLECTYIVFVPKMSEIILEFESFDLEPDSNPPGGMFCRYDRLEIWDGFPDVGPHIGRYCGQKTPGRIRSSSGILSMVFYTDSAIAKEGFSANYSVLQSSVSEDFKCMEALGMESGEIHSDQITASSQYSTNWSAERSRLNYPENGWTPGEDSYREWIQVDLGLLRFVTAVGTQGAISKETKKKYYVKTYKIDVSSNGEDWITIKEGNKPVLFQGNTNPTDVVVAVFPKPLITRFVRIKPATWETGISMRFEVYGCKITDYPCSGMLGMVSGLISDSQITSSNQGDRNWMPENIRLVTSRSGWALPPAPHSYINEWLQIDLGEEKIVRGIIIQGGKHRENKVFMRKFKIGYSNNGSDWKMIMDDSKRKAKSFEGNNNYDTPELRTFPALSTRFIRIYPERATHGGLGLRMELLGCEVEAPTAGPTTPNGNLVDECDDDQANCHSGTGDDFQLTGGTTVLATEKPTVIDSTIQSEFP

B1: P78 (Ctx fragment) 27-34 (peptide)
chain: Ac-KCYGPQCL-NH2
modifications: disulfide 2-7
SMILES: CC(=O)N[C@@H](CCCCN)C(=O)N[C@H]1CSSC[C@@H](C(=O)N[C@@H](CC(C)C)C(N)=O)NC(=O)[C@H](CCC(N)=O)NC(=O)[C@@H]2CCCN2C(=O)CNC(=O)[C@H](Cc2ccc(O)cc2)NC1=O
B1 showed a Kd of 267 µM.
